Non-standard residues stand in square brackets, D forms with d. Ala(4-thiazolyl) = N[C@@H](Cc1cscn1)C(=O)O; 2Pal = N[C@@H](Cc1ccccn1)C(=O)O; 3Pal = N[C@@H](Cc1cccnc1)C(=O)O; 4Pal = N[C@@H](Cc1ccncc1)C(=O)O; d2Pal = N[C@H](Cc1ccccn1)C(=O)O; Ac6c = NC1(C(=O)O)CCCCC1; Ac5c = NC1(C(=O)O)CCCC1
B1: Ac-[A6c^28]hPYY(22-36)NH2 (peptide)
peptide: Ac-ASLRHY[Ac6c]NLVTRQRY-NH2
SMILES: CC(=O)N[C@@H](C)C(=O)N[C@@H](CO)C(=O)N[C@@H](CC(C)C)C(=O)N[C@@H](CCCNC(=N)N)C(=O)N[C@@H](Cc1c[nH]cn1)C(=O)N[C@@H](Cc1ccc(O)cc1)C(=O)NC1(C(=O)N[C@@H](CC(N)=O)C(=O)N[C@@H](CC(C)C)C(=O)N[C@H](C(=O)N[C@H](C(=O)N[C@@H](CCCNC(=N)N)C(=O)N[C@@H](CCC(N)=O)C(=O)N[C@@H](CCCNC(=N)N)C(=O)N[C@@H](Cc2ccc(O)cc2)C(N)=O)[C@@H](C)O)C(C)C)CCCCC1
notes: Synthetic analog of human PYY(22-36)
B2: Ac-[D2Pal^26]hPYY(22-36)NH2 (peptide)
peptide: Ac-ASLR[d2Pal]YLNLVTRQRY-NH2
SMILES: CC(=O)N[C@@H](C)C(=O)N[C@@H](CO)C(=O)N[C@@H](CC(C)C)C(=O)N[C@@H](CCCNC(=N)N)C(=O)N[C@H](Cc1ccccn1)C(=O)N[C@@H](Cc1ccc(O)cc1)C(=O)N[C@@H](CC(C)C)C(=O)N[C@@H](CC(N)=O)C(=O)N[C@@H](CC(C)C)C(=O)N[C@H](C(=O)N[C@H](C(=O)N[C@@H](CCCNC(=N)N)C(=O)N[C@@H](CCC(N)=O)C(=O)N[C@@H](CCCNC(=N)N)C(=O)N[C@@H](Cc1ccc(O)cc1)C(N)=O)[C@@H](C)O)C(C)C
notes: as for B1
B3: Ac-[2Pal^26]hPYY(22-36)NH2 (peptide)
peptide: Ac-ASLR[2Pal]YLNLVTRQRY-NH2
SMILES: CC(=O)N[C@@H](C)C(=O)N[C@@H](CO)C(=O)N[C@@H](CC(C)C)C(=O)N[C@@H](CCCNC(=N)N)C(=O)N[C@@H](Cc1ccccn1)C(=O)N[C@@H](Cc1ccc(O)cc1)C(=O)N[C@@H](CC(C)C)C(=O)N[C@@H](CC(N)=O)C(=O)N[C@@H](CC(C)C)C(=O)N[C@H](C(=O)N[C@H](C(=O)N[C@@H](CCCNC(=N)N)C(=O)N[C@@H](CCC(N)=O)C(=O)N[C@@H](CCCNC(=N)N)C(=O)N[C@@H](Cc1ccc(O)cc1)C(N)=O)[C@@H](C)O)C(C)C
notes: as for B1
B4: Ac-(2Pal^26, Leu^31)hPPY(24-36)NH2 (peptide)
peptide: Ac-LR[2Pal]YLNLLTRQRY-NH2
SMILES: CC(=O)N[C@@H](CC(C)C)C(=O)N[C@@H](CCCNC(=N)N)C(=O)N[C@@H](Cc1ccccn1)C(=O)N[C@@H](Cc1ccc(O)cc1)C(=O)N[C@@H](CC(C)C)C(=O)N[C@@H](CC(N)=O)C(=O)N[C@@H](CC(C)C)C(=O)N[C@@H](CC(C)C)C(=O)N[C@H](C(=O)N[C@@H](CCCNC(=N)N)C(=O)N[C@@H](CCC(N)=O)C(=O)N[C@@H](CCCNC(=N)N)C(=O)N[C@@H](Cc1ccc(O)cc1)C(N)=O)[C@@H](C)O
notes: Also carries Leu at 31 (residue 8 of the peptide), already in the entry
B5: Ac-[4Pal^26]hPYY(22-36)NH2 (peptide)
peptide: Ac-ASLR[4Pal]YLNLVTRQRY-NH2
SMILES: CC(=O)N[C@@H](C)C(=O)N[C@@H](CO)C(=O)N[C@@H](CC(C)C)C(=O)N[C@@H](CCCNC(=N)N)C(=O)N[C@@H](Cc1ccncc1)C(=O)N[C@@H](Cc1ccc(O)cc1)C(=O)N[C@@H](CC(C)C)C(=O)N[C@@H](CC(N)=O)C(=O)N[C@@H](CC(C)C)C(=O)N[C@H](C(=O)N[C@H](C(=O)N[C@@H](CCCNC(=N)N)C(=O)N[C@@H](CCC(N)=O)C(=O)N[C@@H](CCCNC(=N)N)C(=O)N[C@@H](Cc1ccc(O)cc1)C(N)=O)[C@@H](C)O)C(C)C
notes: as for B1
B6: Ac-[A5c^31]hPYY(22-36)NH2 (peptide)
peptide: Ac-ASLRHYLNL[Ac5c]TRQRY-NH2
SMILES: CC(=O)N[C@@H](C)C(=O)N[C@@H](CO)C(=O)N[C@@H](CC(C)C)C(=O)N[C@@H](CCCNC(=N)N)C(=O)N[C@@H](Cc1c[nH]cn1)C(=O)N[C@@H](Cc1ccc(O)cc1)C(=O)N[C@@H](CC(C)C)C(=O)N[C@@H](CC(N)=O)C(=O)N[C@@H](CC(C)C)C(=O)NC1(C(=O)N[C@H](C(=O)N[C@@H](CCCNC(=N)N)C(=O)N[C@@H](CCC(N)=O)C(=O)N[C@@H](CCCNC(=N)N)C(=O)N[C@@H](Cc2ccc(O)cc2)C(N)=O)[C@@H](C)O)CCCC1
notes: as for B1
B7: Ac-(4Pal^26, Leu^31)hPPY(24-36)NH2 (peptide)
peptide: Ac-LR[4Pal]YLNLLTRQRY-NH2
SMILES: CC(=O)N[C@@H](CC(C)C)C(=O)N[C@@H](CCCNC(=N)N)C(=O)N[C@@H](Cc1ccncc1)C(=O)N[C@@H](Cc1ccc(O)cc1)C(=O)N[C@@H](CC(C)C)C(=O)N[C@@H](CC(N)=O)C(=O)N[C@@H](CC(C)C)C(=O)N[C@@H](CC(C)C)C(=O)N[C@H](C(=O)N[C@@H](CCCNC(=N)N)C(=O)N[C@@H](CCC(N)=O)C(=O)N[C@@H](CCCNC(=N)N)C(=O)N[C@@H](Cc1ccc(O)cc1)C(N)=O)[C@@H](C)O
notes: as for B4
B8: Ac-(Taz^26, Leu^31)hPPY(24-36)NH2 (peptide)
peptide: Ac-LR[Ala(4-thiazolyl)]YLNLLTRQRY-NH2
SMILES: CC(=O)N[C@@H](CC(C)C)C(=O)N[C@@H](CCCNC(=N)N)C(=O)N[C@@H](Cc1cscn1)C(=O)N[C@@H](Cc1ccc(O)cc1)C(=O)N[C@@H](CC(C)C)C(=O)N[C@@H](CC(N)=O)C(=O)N[C@@H](CC(C)C)C(=O)N[C@@H](CC(C)C)C(=O)N[C@H](C(=O)N[C@@H](CCCNC(=N)N)C(=O)N[C@@H](CCC(N)=O)C(=O)N[C@@H](CCCNC(=N)N)C(=O)N[C@@H](Cc1ccc(O)cc1)C(N)=O)[C@@H](C)O
notes: as for B4
B9: Ac-[A6C^24, Leu^31]hPYY(24-36)NH2 (peptide)
peptide: Ac-[Ac6c]RHYLNLLTRQRY-NH2
SMILES: CC(=O)NC1(C(=O)N[C@@H](CCCNC(=N)N)C(=O)N[C@@H](Cc2c[nH]cn2)C(=O)N[C@@H](Cc2ccc(O)cc2)C(=O)N[C@@H](CC(C)C)C(=O)N[C@@H](CC(N)=O)C(=O)N[C@@H](CC(C)C)C(=O)N[C@@H](CC(C)C)C(=O)N[C@H](C(=O)N[C@@H](CCCNC(=N)N)C(=O)N[C@@H](CCC(N)=O)C(=O)N[C@@H](CCCNC(=N)N)C(=O)N[C@@H](Cc2ccc(O)cc2)C(N)=O)[C@@H](C)O)CCCCC1
notes: as for B4
B10: Ac-[A6c^30]hPYY(22-36)NH2 (peptide)
peptide: Ac-ASLRHYLN[Ac6c]VTRQRY-NH2
SMILES: CC(=O)N[C@@H](C)C(=O)N[C@@H](CO)C(=O)N[C@@H](CC(C)C)C(=O)N[C@@H](CCCNC(=N)N)C(=O)N[C@@H](Cc1c[nH]cn1)C(=O)N[C@@H](Cc1ccc(O)cc1)C(=O)N[C@@H](CC(C)C)C(=O)N[C@@H](CC(N)=O)C(=O)NC1(C(=O)N[C@H](C(=O)N[C@H](C(=O)N[C@@H](CCCNC(=N)N)C(=O)N[C@@H](CCC(N)=O)C(=O)N[C@@H](CCCNC(=N)N)C(=O)N[C@@H](Cc2ccc(O)cc2)C(N)=O)[C@@H](C)O)C(C)C)CCCCC1
notes: as for B1
B11: Ac-(3Pal^26, Leu^31)hPPY(24-36)NH2 (peptide)
peptide: Ac-LR[3Pal]YLNLLTRQRY-NH2
SMILES: CC(=O)N[C@@H](CC(C)C)C(=O)N[C@@H](CCCNC(=N)N)C(=O)N[C@@H](Cc1cccnc1)C(=O)N[C@@H](Cc1ccc(O)cc1)C(=O)N[C@@H](CC(C)C)C(=O)N[C@@H](CC(N)=O)C(=O)N[C@@H](CC(C)C)C(=O)N[C@@H](CC(C)C)C(=O)N[C@H](C(=O)N[C@@H](CCCNC(=N)N)C(=O)N[C@@H](CCC(N)=O)C(=O)N[C@@H](CCCNC(=N)N)C(=O)N[C@@H](Cc1ccc(O)cc1)C(N)=O)[C@@H](C)O
notes: as for B4
B12: Ac-[A6c^31]hPYY(22-36)NH2 (peptide)
peptide: Ac-ASLRHYLNL[Ac6c]TRQRY-NH2
SMILES: CC(=O)N[C@@H](C)C(=O)N[C@@H](CO)C(=O)N[C@@H](CC(C)C)C(=O)N[C@@H](CCCNC(=N)N)C(=O)N[C@@H](Cc1c[nH]cn1)C(=O)N[C@@H](Cc1ccc(O)cc1)C(=O)N[C@@H](CC(C)C)C(=O)N[C@@H](CC(N)=O)C(=O)N[C@@H](CC(C)C)C(=O)NC1(C(=O)N[C@H](C(=O)N[C@@H](CCCNC(=N)N)C(=O)N[C@@H](CCC(N)=O)C(=O)N[C@@H](CCCNC(=N)N)C(=O)N[C@@H](Cc2ccc(O)cc2)C(N)=O)[C@@H](C)O)CCCCC1
notes: as for B1
B13: Ac-[3Pal^26]hPYY(22-36)NH2 (peptide)
peptide: Ac-ASLR[3Pal]YLNLVTRQRY-NH2
SMILES: CC(=O)N[C@@H](C)C(=O)N[C@@H](CO)C(=O)N[C@@H](CC(C)C)C(=O)N[C@@H](CCCNC(=N)N)C(=O)N[C@@H](Cc1cccnc1)C(=O)N[C@@H](Cc1ccc(O)cc1)C(=O)N[C@@H](CC(C)C)C(=O)N[C@@H](CC(N)=O)C(=O)N[C@@H](CC(C)C)C(=O)N[C@H](C(=O)N[C@H](C(=O)N[C@@H](CCCNC(=N)N)C(=O)N[C@@H](CCC(N)=O)C(=O)N[C@@H](CCCNC(=N)N)C(=O)N[C@@H](Cc1ccc(O)cc1)C(N)=O)[C@@H](C)O)C(C)C
notes: as for B1

Legend:
[1] = molecular target: T1, Y1 receptor (human, UniProt P25929 1-384); experiment: radioligand competition against [125I-Leu31,Pro34]PYY, SK-N-MC membranes, Cheng-Prusoff
T1 construct: whole, on cells; Assayed as membrane homogenates of SK-N-MC cells, not intact cells; also called NPY Y1
T1 sequence (looked up): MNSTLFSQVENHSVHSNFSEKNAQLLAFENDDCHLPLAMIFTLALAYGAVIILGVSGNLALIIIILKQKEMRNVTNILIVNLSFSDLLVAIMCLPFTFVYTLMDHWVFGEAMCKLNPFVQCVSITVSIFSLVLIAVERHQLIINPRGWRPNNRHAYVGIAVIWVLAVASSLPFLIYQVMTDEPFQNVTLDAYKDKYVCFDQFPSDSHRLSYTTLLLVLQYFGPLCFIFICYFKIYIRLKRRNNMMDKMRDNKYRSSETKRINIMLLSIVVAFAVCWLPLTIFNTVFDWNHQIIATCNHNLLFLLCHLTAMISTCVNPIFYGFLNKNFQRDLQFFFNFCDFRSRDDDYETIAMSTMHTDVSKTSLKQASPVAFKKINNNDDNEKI
Protocol: (§1) The final pellets were resuspended in approximately 20 ml of 50 mM Tris-HCl containing 5.0 mM MgCl₂, 0.1 mg/ml bacitracin, and 0.1% BSA (Buffer B), and held on ice for the receptor binding assay.
(§2) For assay, aliquots (0.4 ml) of the foregoing suspensions were incubated with 0.05 ml of 0.05 nM [¹²⁵I-Leu³¹, Pro³⁴]PYY (Y1 receptor) or [¹²⁵I]PYY(3-36) (Y2 receptor), (each ˜2200 Ci/mmol, New England Nuclear) in Buffer B, with or without 0.05 ml a solution (ranging from 0.01 nM -1000 nM) of an unlabeled competing peptide. After a 120 min incubation (25° C.), the bound radioligand was separated from the free by rapid filtration through GF/C filters, previously soaked in 0.3% polyethyleneimine. […] Inhibition constants (K₁,) were calculated using the well-known Cheng-Prusoff equation.

[2] = molecular target: T2, Y2 receptor (human, UniProt P49146 1-381); experiment: radioligand competition against [125I]PYY(3-36), SK-N-BE2 membranes, Cheng-Prusoff
T2 construct: whole, on cells; Assayed as membrane homogenates of SK-N-BE2 cells, not intact cells
T2 sequence (looked up): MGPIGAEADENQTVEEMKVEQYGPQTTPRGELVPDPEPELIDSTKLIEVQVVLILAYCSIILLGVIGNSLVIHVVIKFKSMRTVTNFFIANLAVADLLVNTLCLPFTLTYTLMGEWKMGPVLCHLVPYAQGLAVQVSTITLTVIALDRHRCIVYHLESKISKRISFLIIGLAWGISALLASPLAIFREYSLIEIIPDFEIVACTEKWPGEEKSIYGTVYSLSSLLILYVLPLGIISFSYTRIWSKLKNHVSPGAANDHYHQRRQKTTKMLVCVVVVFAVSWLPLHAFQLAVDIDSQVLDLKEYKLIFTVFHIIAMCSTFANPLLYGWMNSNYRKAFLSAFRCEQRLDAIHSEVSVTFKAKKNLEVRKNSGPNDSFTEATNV
Protocol: as §1, §2

Row | Binder | Ki [1] [µM] | Ki [2] [µM]
1 | B1 | < 2 | < 1
2 | B2 | < 2 | < 1
3 | B3 | < 2 | < 1
4 | B4 | < 2 | < 1
5 | B5 | < 2 | < 1
6 | B6 | < 2 | < 1
7 | B7 | < 2 | < 1
8 | B8 | < 2 | < 1
9 | B9 | < 2 | < 1
10 | B10 | < 2 | < 1
11 | B11 | < 2 | < 1
12 | B12 | < 2 | < 1
13 | B13 | < 2 | < 1

— US20060211610A1 (IPSEN PHARMA S A S, published 2006)
